This data set can be described thus: soluble on expression in E. coli; label from the status in PepcDB or PDB records.
For the sequence “MAHHHHHHMITDLLFKSQIIYNKKDILCARYILFYQHICKRGYKEAAPKVFNKKSSHTSRWIQRQISDRYVLRAKNDNYRSRAAYKLIELDNKYLFLKKNKIILDIGCYPGSWCQVILERTKNYKNKIIGIDKKIMDPIPNVYFIQGEIGKDNMNNIKNINYIDNMNNNSVDYKLKEILQDKKIDIILSDAAVPCIGNKIDDHLNSCELTLSITHFMEQYINIGGTYIVKMYLGSQTNNLKTYLKGMFQLVHTTKPKASRNESREIYLVCKNFLGRKKITEDVQIKGSFSSKEGYY”, the “soluble on expression in E. coli” value is given as “not soluble”.
Regarding “MAHHHHHHMIVLLRKNNLKNTLRLFPLGCNNKLVFMRGYINEQTKGPIEKKTTDNNEKMLLNKTLEDVKVSKENSCNALFDECLEELYRMKKKVDKESVEYDNSPIIEELNREELKITRNIFERINKKKKHVSNLSYKDIYIDPYWNPFKDVDNLKQEILYEFNEYSKMASIVELKKQRRAIKKSLKEQYKLYNPYSEEYNKHFNLNMDNDVKEQQMECHDKDEKYWNPSFNKRKILNIKSPFIWRYTHLLHHFIGENGLILPRKINMTTRKQQIQIFKSICIARRMALYPYDKKPEKDDLIPLMDPLQFLLDELIHRYIQLNDLRAQAIIKVMINRYPSLNYYKYFFYESKKEKDKNEKTAQNEQEENVSEKKEPFSQMLQKYKKNYYENFYKY”, the “soluble on expression in E. coli” value is “not soluble”.
Regarding “MAHHHHHHMKGHIFYDVTEKGTPPAEYFVSSTGWGMSVVSPPNVGNCDEWETQVKAERIIVNCPDEMDVKAMCAWMERDGTTDGQAECWKMVEERMDKVGPIPRHIFDANKFVAHSAAIEDALDGINSRDGERHFTHRGVRLWYSGDPPQKVVSVVRARGEFGAGGFLNAAISVCLGRRIAHYFGGRDE”, the “soluble on expression in E. coli” value is recorded as “not soluble”.
As for “MAHHHHHHMKKKNNNKLHYLDSKGKLYTSGLRSDTKEKYGEIPSSNKNHNLIEKYNELQSLLSKEEEKYDFVKNELGDLQKQKDLLKWHLCNNIKKLSMKRSDYKFKTETKSKLESKLKSLKDMNKIHKFEHDTLEELVHKMEQELETKMYIKNDIENIFNECINKKDEYLKDITQERISVFKERKKRQNQLQKLLLIMKQENNKNYNINYLKKYESNLMNEINSYKNYKDFETKIAMDLIDDHSLNDLYVT”, the “soluble on expression in E. coli” value is on record as “not soluble”.
Take “MAHHHHHHMKQECNVCYFNLPDPESTLGPYDNELNYFTWGPGFEYEPEPQRKPLSIEESFENSEESEESVADIQQLEEKVDESDVRIYFNEKSSGGKISIDNASYNARKLGLAPSSIDEKKIKELYGDNLTYEQYLEYLSICVHDKDNVEELIKMFAHFDNNCTGYLTKSQMKNILTTWGDALTDQEAIDALNAFSSEDNIDYKLFCEDILQ”: the “soluble on expression in E. coli” value was “soluble”.
As to “MAHHHHHHMKRDRDDSVVGTPNGKWDVSPHGTLGVEAKEFERNAVRRYVFGLVHLKNEGPKANAVDVSESIVRSFNERFRRIVKIGQGSFGEVYIVFDTVTQTHLTMKRMQLLRGAGRRVMGLCNTTSREMNLLRVLKHVNIVELFDYHVVPDGTLIMLMPVIAYDLVSLIRLWRNGGPRGEPSAGRMPLPTIKCIFRQLLTGLAYLHKERVIHRDLKPTNVMINEKGVVKIIDFGWARFCPARWRGPMTGPPCPVAYRPPEVLLGGEHAVNYDASVDLWCCGCILFEMLSGGKMFINARSEAEAVAGITDWLGSPSSKSTLYYGHSAASLIRFKQNRPSRLAHRCELLHIDRDSVDMLDKMLQLEPKWRMPAEELLRHRWFSSAPVACEPHEISLPEHNMYRWLDSKRPS”, the “soluble on expression in E. coli” value is recorded as “soluble”.
For “MAHHHHHHMKSHNLDLIKNQNFDKNHNFINYSELYKKYKEKYNVKSFNKLPVSTYTYPRYSKITNFDELKTELIYEKEINEIEEEYDDDDEQNNINNYDGNIEILFPMINEKENEDIKKKKTDNIYKSEKKSLRQRIYDGEVMFYEDYIEQLAVKDYEHFFKKPYEIKRKDEGGKNYFYGKKLEMNKEEDIYRKFYGFDDAYFLNKLQLKNKSPQKEKNKEEKQKKRNEEKILERQCGKKLSYEDKKFILNIIEENQLQDNSIYKYYMQNKCIFDKNLPEFKKKELLCGYIPDIILPANVRKVKHPKNCGVPLSSLHIYAQFIHELFKCPYIYNAIDVELGKYWKTNENELLNIMKSEKIKKGYKKDIYTATKEQLEKSSAKLKNLLKNDEVSDDTRKKFTINFKMPKKEKTNLVVSKGRYII” the value was “soluble”; for “MAHHHHHHMLFVDLLNGVNVNYKRKVPICKRPTRSAEYLSNQPLHANRNVEQTSSKNGEASITNHEDEKDENILQQYIYTLSHLTIFDVDRDKSTPLNIALLLKACLASHNYIKNVEIFTSNVKNKEICSFIYERRNDFDAFFKLHVMKYIDFFGNPQIVETLKSSVDNKEMYQRELEIFNQIDGETKLRKDLLEDILFECTRLNKIIQYSLAVNNFNLFSPTVLLKLFTYFKHYGVYYSIFLNNIKKVKYYYQTKDIREEDKRKIEKIVDHYLLTLDRFNHMYEAGHVTL”, “not soluble”.
Regarding “MAHHHHHHMLGKLGLRTEAYPFDFSRVTLDGLMHFIRNGFAEGFYPPGPLPYRPECVGPWVLFRGQHTAFAHFDLNDPHVQAHFQVKMRRFDAVLNSPERPVTFFRTVTARYPQQELALALDLEEAVARRNPSLDFRIVFMVHDQGLRANAVQLAPLSPRVTLWTLQYRGLPGDTLFDRTHTAYRTVMMHSVAESNWPAVNVGVATPPPATVAPAEARDFESGALRCDGAIRTDDVPLSDLTVDRFPWRSHDNLALIDGVASVGGTCAGIGSTKMLEDASAALQVEGRVRRKCRYCGDATYHAAGRPFRTERPFTDEEDQLVLIHLYQILTGGDKVAAVEKLAHEMRRGTYEVICRIQYLTNSSTKLMDSIDPASPSDS”, the “soluble on expression in E. coli” value is given as “not soluble”.
In the case of “MAHHHHHHMLLLLFRPVYQCTVALLCRSLPAYHPCLLSTDSPPPFFTVFCHLDDALHAMRRRSCSLRRLEVHTKRRAHAIMAELANPNPTVFEPTHDPLKGRTDAERAAEDDEDTEDPIDAWEVFEMIRRIRDPEHPNSLEQLKVVEPSLITVDWKKRHIRVLFTPTVPHCSLTTLIGLSIRLQLERSLPEYTKVDIYVTPGTHEQEAQVNKQLNDKERVAAALENRNLLNVVESCINEFDE”, the “soluble on expression in E. coli” value is “not soluble”.
In the case of “MAHHHHHHMLRRVPLRLARRKHGQTAWSPNNTSSGAAPTNGITAQEALQIAYRPMPPANTVEYEEDFGPNMMIHREFVSSRHRTRMASDISALAYSDVELARARQQLAGVMNRERRGALVGSGGEAGDRVLFNSDVDETTREVKSARFLFNEQRMRFCDRFQTFFRERIERWAAGDAGAGEDDHPYFSLMEACAVLHGCDTVDAREVYYRRFLGLDLDTLEAEEAALRARAADAAEVGARLTRGEAGAGGGALVAAAAGGAGGAGSATDVVQDIIDALPPLFPQPAAAEVGEASEAVADAPPARARAAGAGELPPATAAAPAHLAEDAAPLYKAYLAHARGESPVGSYDVTTLGAHAAHAERRRWRSLMDKIAAEDYHELTAAELEDAHVLNGQLHTVKFFDLKVGDTVREIVQLLERETGSSASGDRDVPVEMSPTHPERRV”, the “soluble on expression in E. coli” value was “not soluble”.
For “MAHHHHHHMLSASSSSSELETADDASVEHAALAYERVRREHALQRYLKAREAYEVACIARERRQLVVQSHNHTLRLLGQVVCDVKAVVDGTLKEGLSVRESTATAAEMLLASSCYKRAERGLVTLLAHEGRQHEVLRAATSPATETSRIPQVFSSGSRAEKPVASSPAKHMLRPLLLLCEWRLDYATLLCRQRLPLFSELARAQRVVSNSRESAREARGRMSAPTTPVVQRCQVQVAEARASLAKARAFQRSLKDRLHQLHQMLSRSAPVHAESGVFVDAGVAEEIQARLRQELAVGHVTLLRILCESLSGAFDERGRLTAL” the value was “not soluble”; for “MAHHHHHHMLTSENPAERAGQAGQAIRPPPSPVPDGTRPSDSSRGDSSVSPLSTTGISSSSALDAPIVQSTQPSEKGLRSETISLGTALPNEQPKERSESKAKQGSSTSEEVAESPDDSGDAVEKEKKGDVGPKATTSLSSTTSNPPVTQTTPRASSAEPPPTETELQTGEETSTENVTITKRNNTTTPGDSDGSTAVSHTTSPLLLLLVVVECAAAAAVVAA”, “soluble”; for “MAHHHHHHMLYLKEIELGNYYICNLDDYPREYCVVDYDPNKVIKFLCPIVHNEGEEMKTYDSSYCFRYKGIKDRLIISNNEEQIYTTLPGIILENQILYDRYNLGIYLMPLKLEEDMSIVCVCDTKKEYKGITPYIKINIKKSNNLLGADSADQHIKGCDFGNNQGEHQFLTNSQSYEENLVCEIHANPGDIVGINCINYNEGDLQNYEVKLEPSNCFSTVSFSLYTLSFVKMNINNIFPDARYYPESSAFPKDPNFKKFSTTSYLWIPAHVPEDFLFFCSCRYAQGEGVAIYHVGSSAAAVEAV”, “not soluble”.
Consider “MAHHHHHHMMNMFYRRDFPVSFRYVNDHSKFIGAGSGRGNRKRGMAPNNYTEYLRIMANEANGTGQDTSRVLFIDSEVNYRFTPVQTIVLDAYEPLTRRQQRRLVQQQYSNPFGDVSSRNARRYGAAAARARKMTVRHRAVVSAQHLQDAVDMQQKYTDFLIAEQEGVQLPPEMRNGVQDGHGGDLCHFSKRHPQRSAPSSSSPPHPQQGGSTRGRVSGPLSTPGPSSLADTESDKTPPDGNKDIKEEQQQLSMSCALAVNLEDYSLVALAEMIAEMSASETSVADYIKTEPLIEKVEVPFHGKANYLAPENCDNIDLLNWDEIQVLEKAHGTGVPEMVEETEDHKDFFR”, for which the “soluble on expression in E. coli” value is given as “not soluble”.
Consider “MAHHHHHHMMRIPPLVVCGPSGVGKGTLIKRLLGEFPSLFRFSISCTTRKKREKEMDGVDYYFVDKEDFEQKIKEEQFLEYDNYANNFYGTLKSEYDIAAGENKICLLEMNINGVKQLKESKHIEDGIYIFVKPPSIEILLKRLKNRNTENPEEIKKRMQELTREMDEADKVGFNYIIVNDDLARTYGELRKYLLGSYPQLGGA”, for which the “soluble on expression in E. coli” value was “soluble”.
With “MAHHHHHHMMRSRRPLSASRASARASAASRPQPHTTVSSDDASRSQTTAPIYRPLRYVGRGSFGVVLLAEEVHTGDRVAIKRVHYDARLHNREVAILNSVLVDNPRHQQPSSTAVDSNDASRRPGGAARASCTSFLSASSSSHTVEDVHLWPGTHHPNIVELLDFYVTYDTASSEQALGADMVGAGGAGAGFEFLPSYHPAAHRYPLSGGSGAASASAPPVPAPLAAFAYLEMVMSYLPMDLCYVKRYYFRFHDMPTIATSSSSSPIASPEQAPTELSSGELPEGTADRLPASPKHAGTGCNGNNSSRHSSTSSSGGDVCNHLPLRWVKVVLFQLARALAFMHVRHVCHRDLKPANVLVDPDTGRVQVCDFGSAKQITRPAEEKNVSYICSRYYRAPELLFGALHYGCAVDMWSFGCIAAELLRESGKPLFRGCTSIDQMAELFKVLGAPSKREMYAMNPQCAEALLRTRAMHRHQSLDNDPHSGSGGGVRQDRSCGLELEVDYQAEEEDDVELRGGAQQGGYDVDSHGEFLRDALDDGISSQASASPGMATASPPSSSTKDPRDYKTTFSAPPSTAATAMLDDVAPTPFEEYYDVLKVRAIPWRRLFPVDTPTEAVALVASLLCYAPDKRLTAAELVEHPFFDDLFSAADAQLATVDRDAATAVASGATMSPSEDDGVASAALRLPNGRLMPLSMFQVTEVERGLYTDAFLTRMARQAELVAAVMKQDEYP”, the “soluble on expression in E. coli” value is listed as “not soluble”.
For the sequence “MAHHHHHHMNCPIVLKTLEQNKNFCVINPEAMDSCIYISLDYFKENLITSCTHKKPLPHTCNVKNEISGIKNLKTEQIELNEFIQEYYKRLIINDDEIMWNVCYFRKSKEFLTILLLEFLKSMLTVLNKYNGKCIFKKTEYLVNCGHHITHRIWIQMFYEYGFESVDADTKKNMKNYPIIQQEDGNNRTLYLTIADHYKWDA”, the “soluble on expression in E. coli” value is listed as “not soluble”.
Consider “MAHHHHHHMNFEDDDDIVIPGEFLGLQAEYINGNNTYLLKDEIRSSILGQKIINKNNDKKTIISVYNLKPPSLYLPKIGDIVICKVQRVSFHMIYCYILSSHNIFTKNALKGFILKSDIHINEGELGDNFICFKQGDIIKAKVLSIGQYSSYKLSTVGSELGVIAAFNQKGEILRPVAWNLVLNINDMTFERRKASNDFSLLL”, for which the “soluble on expression in E. coli” value is “not soluble”.

The values above are taken from the DeepSol protein solubility set.
